In patent US9260500B2, “Peptide and use thereof” (Takeda Pharmaceutical Company Limited, priority 2009, dated 2016):
Starred links: 1 amine or outer side, 2 acyl side, 3 side chain; linkers in the order of their positions; H or OH if unused. Non-standard residues stand in square brackets, D forms with d. Ala(piperidin-4-yl) = O=C([C@H](CC1CCN([*:3])CC1)N[*:1])[*:2]; hArg = N=C(N)NCCCC[C@H](N)C(=O)O; 3Pal = N[C@@H](Cc1cccnc1)C(=O)O; 4Pal = N[C@@H](Cc1ccncc1)C(=O)O; Cha = N[C@@H](CC1CCCCC1)C(=O)O; Cit = NC(=O)NCCC[C@H](N)C(=O)O; hSer = N[C@@H](CCO)C(=O)O; Iva = CC[C@](C)(N)C(=O)O; Nle = CCCC[C@H](N)C(=O)O; Orn = NCCC[C@H](N)C(=O)O; Nar = not defined here; Aib = CC(C)(N)C(=O)O

Key:
[1] = target: T1, human Y2 receptor (Homo sapiens, UniProt P49146); experiment: Receptor Binding Assay (RBA) for Human Y2, [125I]-PYY displacement on hY2R/CHO membrane fraction; conditions: IC50 of test compound/IC50 of PYY(3-36) (PYY(3-36) taken as 1)
T1 construct: expressed in transfected cells; membrane fraction
T1 sequence (P49146 1-381): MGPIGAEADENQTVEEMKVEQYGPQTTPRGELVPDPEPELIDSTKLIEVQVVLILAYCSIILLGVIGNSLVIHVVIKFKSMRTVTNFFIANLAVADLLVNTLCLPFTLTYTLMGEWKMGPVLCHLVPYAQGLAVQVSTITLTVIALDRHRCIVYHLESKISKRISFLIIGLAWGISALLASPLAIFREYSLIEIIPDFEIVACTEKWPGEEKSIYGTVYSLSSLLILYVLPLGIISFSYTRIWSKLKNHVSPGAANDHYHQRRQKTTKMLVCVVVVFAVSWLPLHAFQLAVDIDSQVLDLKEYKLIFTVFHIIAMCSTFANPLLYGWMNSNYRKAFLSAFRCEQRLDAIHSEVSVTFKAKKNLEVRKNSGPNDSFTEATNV
Method in brief: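 Read-out is [125I]-PYY displacement from membranes of CHO/dhfr− cells stably transfected with human Y2R. Membranes were obtained by disrupting cells in a buffer of 10 mM NaHCO3, 5 mM EDTA and protease inhibitors.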

[2] = target: T1, human Y2 receptor; experiment: Human Y2 Receptor G Protein Binding Assay (GBA), [35S]GTPγS; assay type: biochemical; conditions: EC50 of test compound/EC50 of PYY(3-36) (PYY3-36 taken as 1), hY2R/CHO membrane fraction
Method in brief: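 Agonism measured as [35S]GTPγS binding, read by GF/C filtration and scintillation counting after 120 min at room temperature, using human Y2 membranes at 1 μg protein/mL in pH 7.4 Tris/MgCl2/NaCl/GDP buffer. Compound serially diluted 100 μM–1 nM; EC50 normalized to PYY(3-36) (ratio = compound/PYY).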

Substance	RBA IC50 Ratio [1]	GBA EC50 Ratio [2]
Ac-[D-Pro24, Iva26, Cha27,28,36, Aib31]-PYY(23-36) (Ac-S[dP]R[Iva][Cha][Cha]NL[Aib]TRQR[Cha]-NH2; SMILES CC[C@](C)(NC(=O)[C@H](CCCNC(=N)N)NC(=O)[C@H]1CCCN1C(=O)[C@H](CO)NC(C)=O)C(=O)N[C@@H](CC1CCCCC1)C(=O)N[C@@H](CC1CCCCC1)C(=O)N[C@@H](CC(N)=O)C(=O)N[C@@H](CC(C)C)C(=O)NC(C)(C)C(=O)N[C@H](C(=O)N[C@@H](CCCNC(=N)N)C(=O)N[C@@H](CCC(N)=O)C(=O)N[C@@H](CCCNC(=N)N)C(=O)N[C@@H](CC1CCCCC1)C(N)=O)[C@@H](C)O) [compound No. 176]	5.2	4.2
Ac-[D-Pro24, Lys(Ac)25, Pya(4)26, Cha27,36, Aib28,31, Lys30]-PYY(23-36) (Ac-S[dP]K(Ac)[4Pal][Cha][Aib]NK[Aib]TRQR[Cha]-NH2; SMILES CC(=O)NCCCC[C@H](NC(=O)[C@H]1CCCN1C(=O)[C@H](CO)NC(C)=O)C(=O)N[C@@H](Cc1ccncc1)C(=O)N[C@@H](CC1CCCCC1)C(=O)NC(C)(C)C(=O)N[C@@H](CC(N)=O)C(=O)N[C@@H](CCCCN)C(=O)NC(C)(C)C(=O)N[C@H](C(=O)N[C@@H](CCCNC(=N)N)C(=O)N[C@@H](CCC(N)=O)C(=O)N[C@@H](CCCNC(=N)N)C(=O)N[C@@H](CC1CCCCC1)C(N)=O)[C@@H](C)O) [compound No. 280]	6.6	4.2
Ac-[D-Pro24, Nar25, Pya(4)26, Cha27,36, Aib28,31, Lys30]-PYY(23-36) (Ac-S[dP][Nar][4Pal][Cha][Aib]NK[Aib]TRQR[Cha]-NH2; reading uncertain) [compound No. 290]	1.1	1.8
Ac-[D-Pro24, Nle25, Pya(4)26, Cha27,28,36, Aib31]-PYY(23-36) (Ac-S[dP][Nle][4Pal][Cha][Cha]NL[Aib]TRQR[Cha]-NH2; SMILES CCCC[C@H](NC(=O)[C@H]1CCCN1C(=O)[C@H](CO)NC(C)=O)C(=O)N[C@@H](Cc1ccncc1)C(=O)N[C@@H](CC1CCCCC1)C(=O)N[C@@H](CC1CCCCC1)C(=O)N[C@@H](CC(N)=O)C(=O)N[C@@H](CC(C)C)C(=O)NC(C)(C)C(=O)N[C@H](C(=O)N[C@@H](CCCNC(=N)N)C(=O)N[C@@H](CCC(N)=O)C(=O)N[C@@H](CCCNC(=N)N)C(=O)N[C@@H](CC1CCCCC1)C(N)=O)[C@@H](C)O) [compound No. 140]	20	2.6
Ac-[D-Pro24, Orn26, Cha27,28,36, Aib31]-PYY(23-36) (Ac-S[dP]R[Orn][Cha][Cha]NL[Aib]TRQR[Cha]-NH2; SMILES CC(=O)N[C@@H](CO)C(=O)N1CCC[C@@H]1C(=O)N[C@@H](CCCNC(=N)N)C(=O)N[C@@H](CCCN)C(=O)N[C@@H](CC1CCCCC1)C(=O)N[C@@H](CC1CCCCC1)C(=O)N[C@@H](CC(N)=O)C(=O)N[C@@H](CC(C)C)C(=O)NC(C)(C)C(=O)N[C@H](C(=O)N[C@@H](CCCNC(=N)N)C(=O)N[C@@H](CCC(N)=O)C(=O)N[C@@H](CCCNC(=N)N)C(=O)N[C@@H](CC1CCCCC1)C(N)=O)[C@@H](C)O) [compound No. 150]	4.2	2.2
Ac-[D-Pro24, Pya(3)26, Cha27,28,36, Aib31]-PYY(23-36) (Ac-S[dP]R[3Pal][Cha][Cha]NL[Aib]TRQR[Cha]-NH2; SMILES CC(=O)N[C@@H](CO)C(=O)N1CCC[C@@H]1C(=O)N[C@@H](CCCNC(=N)N)C(=O)N[C@@H](Cc1cccnc1)C(=O)N[C@@H](CC1CCCCC1)C(=O)N[C@@H](CC1CCCCC1)C(=O)N[C@@H](CC(N)=O)C(=O)N[C@@H](CC(C)C)C(=O)NC(C)(C)C(=O)N[C@H](C(=O)N[C@@H](CCCNC(=N)N)C(=O)N[C@@H](CCC(N)=O)C(=O)N[C@@H](CCCNC(=N)N)C(=O)N[C@@H](CC1CCCCC1)C(N)=O)[C@@H](C)O) [compound No. 148]	3.3	1.2
Ac-[D-Pro24, Pya(4)26, Ala(4Pip)27, Aib28,31, Lys30, Cha36]-PYY(23-36) [compound No. 308] (Ac-S[dP]R[4Pal][Ala(piperidin-4-yl)][Aib]NK[Aib]TRQR[Cha]-NH2; SMILES CC(=O)N[C@@H](CO)C(=O)N1CCC[C@@H]1C(=O)N[C@@H](CCCNC(=N)N)C(=O)N[C@@H](Cc1ccncc1)C(=O)N[C@@H](CC1CCNCC1)C(=O)NC(C)(C)C(=O)N[C@@H](CC(N)=O)C(=O)N[C@@H](CCCCN)C(=O)NC(C)(C)C(=O)N[C@H](C(=O)N[C@@H](CCCNC(=N)N)C(=O)N[C@@H](CCC(N)=O)C(=O)N[C@@H](CCCNC(=N)N)C(=O)N[C@@H](CC1CCCCC1)C(N)=O)[C@@H](C)O)	17	11
Ac-[D-Pro24, Pya(4)26, Ala(4Pip)27, Aib28,31, Lys30, Cha36]-PYY(23-36) [compound No. 309] (Ac-S[dP]R[4Pal][Ala(piperidin-4-yl)][Aib]NK[Aib]TRQR[Cha]-NH2; SMILES CC(=O)N[C@@H](CO)C(=O)N1CCC[C@@H]1C(=O)N[C@@H](CCCNC(=N)N)C(=O)N[C@@H](Cc1ccncc1)C(=O)N[C@@H](CC1CCNCC1)C(=O)NC(C)(C)C(=O)N[C@@H](CC(N)=O)C(=O)N[C@@H](CCCCN)C(=O)NC(C)(C)C(=O)N[C@H](C(=O)N[C@@H](CCCNC(=N)N)C(=O)N[C@@H](CCC(N)=O)C(=O)N[C@@H](CCCNC(=N)N)C(=O)N[C@@H](CC1CCCCC1)C(N)=O)[C@@H](C)O)	3.8	3.9
Ac-[D-Pro24, Pya(4)26, Cha27,36, Aib28,31, Arg30]-PYY(23-36) (Ac-S[dP]R[4Pal][Cha][Aib]NR[Aib]TRQR[Cha]-NH2; SMILES CC(=O)N[C@@H](CO)C(=O)N1CCC[C@@H]1C(=O)N[C@@H](CCCNC(=N)N)C(=O)N[C@@H](Cc1ccncc1)C(=O)N[C@@H](CC1CCCCC1)C(=O)NC(C)(C)C(=O)N[C@@H](CC(N)=O)C(=O)N[C@@H](CCCNC(=N)N)C(=O)NC(C)(C)C(=O)N[C@H](C(=O)N[C@@H](CCCNC(=N)N)C(=O)N[C@@H](CCC(N)=O)C(=O)N[C@@H](CCCNC(=N)N)C(=O)N[C@@H](CC1CCCCC1)C(N)=O)[C@@H](C)O) [compound No. 263]	1.1	1.8
Ac-[D-Pro24, Pya(4)26, Cha27,36, Aib28,31, Cit30]-PYY(23-36) (Ac-S[dP]R[4Pal][Cha][Aib]N[Cit][Aib]TRQR[Cha]-NH2; SMILES CC(=O)N[C@@H](CO)C(=O)N1CCC[C@@H]1C(=O)N[C@@H](CCCNC(=N)N)C(=O)N[C@@H](Cc1ccncc1)C(=O)N[C@@H](CC1CCCCC1)C(=O)NC(C)(C)C(=O)N[C@@H](CC(N)=O)C(=O)N[C@@H](CCCNC(N)=O)C(=O)NC(C)(C)C(=O)N[C@H](C(=O)N[C@@H](CCCNC(=N)N)C(=O)N[C@@H](CCC(N)=O)C(=O)N[C@@H](CCCNC(=N)N)C(=O)N[C@@H](CC1CCCCC1)C(N)=O)[C@@H](C)O) [compound No. 266]	2.7	3.1
Ac-[D-Pro24, Pya(4)26, Cha27,36, Aib28,31, Har30]-PYY(23-36) (Ac-S[dP]R[4Pal][Cha][Aib]N[hArg][Aib]TRQR[Cha]-NH2; SMILES CC(=O)N[C@@H](CO)C(=O)N1CCC[C@@H]1C(=O)N[C@@H](CCCNC(=N)N)C(=O)N[C@@H](Cc1ccncc1)C(=O)N[C@@H](CC1CCCCC1)C(=O)NC(C)(C)C(=O)N[C@@H](CC(N)=O)C(=O)N[C@@H](CCCCNC(=N)N)C(=O)NC(C)(C)C(=O)N[C@H](C(=O)N[C@@H](CCCNC(=N)N)C(=O)N[C@@H](CCC(N)=O)C(=O)N[C@@H](CCCNC(=N)N)C(=O)N[C@@H](CC1CCCCC1)C(N)=O)[C@@H](C)O) [compound No. 277]	0.36	0.79
Ac-[D-Pro24, Pya(4)26, Cha27,36, Aib28,31, Hse30]-PYY(23-36) (Ac-S[dP]R[4Pal][Cha][Aib]N[hSer][Aib]TRQR[Cha]-NH2; SMILES CC(=O)N[C@@H](CO)C(=O)N1CCC[C@@H]1C(=O)N[C@@H](CCCNC(=N)N)C(=O)N[C@@H](Cc1ccncc1)C(=O)N[C@@H](CC1CCCCC1)C(=O)NC(C)(C)C(=O)N[C@@H](CC(N)=O)C(=O)N[C@@H](CCO)C(=O)NC(C)(C)C(=O)N[C@H](C(=O)N[C@@H](CCCNC(=N)N)C(=O)N[C@@H](CCC(N)=O)C(=O)N[C@@H](CCCNC(=N)N)C(=O)N[C@@H](CC1CCCCC1)C(N)=O)[C@@H](C)O) [compound No. 265]	5.8	5.7
Ac-[D-Pro24, Pya(4)26, Cha27,36, Aib28,31, Lys30]-PYY(22-36) (Ac-AS[dP]R[4Pal][Cha][Aib]NK[Aib]TRQR[Cha]-NH2; SMILES CC(=O)N[C@@H](C)C(=O)N[C@@H](CO)C(=O)N1CCC[C@@H]1C(=O)N[C@@H](CCCNC(=N)N)C(=O)N[C@@H](Cc1ccncc1)C(=O)N[C@@H](CC1CCCCC1)C(=O)NC(C)(C)C(=O)N[C@@H](CC(N)=O)C(=O)N[C@@H](CCCCN)C(=O)NC(C)(C)C(=O)N[C@H](C(=O)N[C@@H](CCCNC(=N)N)C(=O)N[C@@H](CCC(N)=O)C(=O)N[C@@H](CCCNC(=N)N)C(=O)N[C@@H](CC1CCCCC1)C(N)=O)[C@@H](C)O) [compound No. 219]	2.3	1.7
